The assay addresses Venezuelan equine encephalitis virus (VEEV) virus-like particles (Venezuelan equine encephalitis virus, …, UniProt P09592 813-1254). In words: SPR. (Surface plasmon resonance follows binding to a sensor surface in real time, without labels.)

This note sets out measurements from article PMC8550936 (2021).

B1: LDLRAD3(D1), cleaved monomeric ectodomain of mouse low-density lipoprotein receptor class A domain-containing 3, domain 1 (domain or fragment)
chain: not shown
With B1, the dissociation constant (Kd) came out at 58.2 nM.

The Kd is a measure of binding affinity in units of concentration.
